Test system: T1, KZ-sarcin recombinant protein
T1 sequence: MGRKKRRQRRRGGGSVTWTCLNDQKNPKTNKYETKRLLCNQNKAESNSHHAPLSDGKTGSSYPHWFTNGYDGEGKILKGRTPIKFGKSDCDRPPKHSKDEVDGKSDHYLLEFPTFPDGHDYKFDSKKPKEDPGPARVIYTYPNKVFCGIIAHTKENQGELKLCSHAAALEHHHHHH

Question: How did the “hydrolysis of KZ-sarcin by caspase-3, SDS-PAGE (room temperature, 15 minutes)” value turn out when caspase-3 (Sigma Chem. Co, U.S.A.) was run?
Answer: KZ-sarcin recombinant protein was hydrolyzed by caspase-3 into two fragments of 12 kb and 8.5 kb

— patent US20170152293
